Target: Recombinant stabilized SARS-CoV-2 spike for ELISA (Wuhan) (SARS-CoV-2, Wuhan, UniProt P0DTC2, stabilised)
Experiment: ELISA
Conditions: both partners purified

B1: P008_60 IgG (antibody, V domains shown)
VH: EVQLVESGGGVVQPGRSLRLTCAASGFIFSSYGMHWVRQAPGKGLEWVAVISYDGSYKYYADSVKGRFTISRDNSKNTLYLQMNSLRAEDTAVYYCTKADYYDFWSGYQKTYYYYMDVWGKGTTVTISS
VL: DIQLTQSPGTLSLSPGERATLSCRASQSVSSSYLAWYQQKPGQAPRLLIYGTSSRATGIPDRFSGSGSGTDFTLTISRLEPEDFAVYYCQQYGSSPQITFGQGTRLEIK
notes: also called mAb P008_60; P008_060; source: HEK-293F, co-transfected heavy and light plasmids, purified (protein G)
- binding result: binds
